Reference: PMC5741177
Where two headings read alike, the source gives them in different places.

Assays:
brHis2 [1] = target: T1, brHis2 (UniProt P03069, L230H;R234H); assay: EMSA
T1 chain: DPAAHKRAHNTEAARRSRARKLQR

br2(SS) = target: T2, br2(SS) (UniProt P03069 226-248+=GGC, internal_change); assay: EMSA
T2 chain: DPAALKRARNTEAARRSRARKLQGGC

br = target: T3, br (UniProt P03069); assay: EMSA
T3 chain: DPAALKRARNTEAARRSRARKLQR

brHis = target: T4, brHis (UniProt P03069, R234H); assay: EMSA
T4 chain: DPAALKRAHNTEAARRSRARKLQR

brHis2 [2] = target: T1, brHis2; assay: EMSA
brHis2 [3] = target: T1, brHis2; assay: fluorescence anisotropy

B1: AP-1 (dsDNA)
DNA 1: TGGAGATGACGTCATCTCGT
DNA 2: ACGAGATGACGTCATCTCCA
B1: binds (brHis2 [1]); binds (br2(SS)).

B2: GTCAT (dsDNA)
DNA 1: CGCGTCATAATTGAGAGCGC
DNA 2: GCGCTCTCAATTATGACGCG
B2: no binding (br); no binding (brHis).

B3: MUT (dsDNA)
DNA 1: CGCGTGATAATTGAGAGCGC
DNA 2: GCGCTCTCAATTATCACGCG
B3: no binding (brHis2 [2]).

B4: TMR-GTCAT (dsDNA)
DNA 1: CGCGTCATAATTGAGAGCGC
DNA 2: GCGCTCTCAATTATGACGCG
B4 gave a Kd (brHis2 [3]) of roughly 24 nM.
